Sequences and labels used below:
B1: Protein piccolo, residues 1058 to 1114; numbered along this chain, Q9Y6V0 (parent)
chain: TCPLCKTELNIGSKDPPNFNTCTECKNQVCNLCGFNPTPHLTEIQEWLCLNCQTQRA

Results on 47 variants are retold here after the Human Domainome abundance scans (Beltran et al. 2025).

± gives the uncertainty stated by the source.

In this data set the parent is B1. The data set is described as follows: abundance fitness (aPCA) (normalised: wild type 0, dead -1); higher = more abundant; growth selection in yeast, the domain comes from the species named. The settings on record: Homo sapiens.
Turning to TCPLCKTELNIGSKDPPNFNTCTECKNQVCNLCGFNPTPHPTEIQEWLCLNCQTQRA [L41P], the abundance fitness is -0.037 ± 0.14.

Turning to TCPLCKTELNIGSKDPPNFNTCTECKNQVCNLCGFNPTPHMTEIQEWLCLNCQTQRA [L41M], the abundance fitness is -0.189 ± 0.12.

Take TCPLCKTELNIGSKDPPNFNTCTECKNQVFNLCGFNPTPHLTEIQEWLCLNCQTQRA [C30F]: the abundance fitness is -0.991 ± 0.14.

Regarding TCPLCKTELNIGSKDPPNFNTCTECKNQVCNLCGFNPTTHLTEIQEWLCLNCQTQRA [P39T], the abundance fitness is -0.005 ± 0.13.

With TCPLCKTELNIGSKDPPNFNTCTECKNQVCNLCGFNPTGHLTEIQEWLCLNCQTQRA [P39G], the abundance fitness was -0.211 ± 0.1.

On to TCPLCKTELNIGSKDPPNFNTCTECKNQVCNLCGFNPTLHLTEIQEWLCLNCQTQRA [P39L], for which the abundance fitness is -0.001 ± 0.084.

On to TCPLCKTELNIGSKDPPNFNTCTECKNQVCNLCGFNPTHHLTEIQEWLCLNCQTQRA [P39H], for which the abundance fitness was -0.393 ± 0.33.

Regarding TCPLCKTELNIGSKDPPNFNTCTECKNQVCNLCGFNPTCHLTEIQEWLCLNCQTQRA [P39C], the abundance fitness is -0.115 ± 0.13.

For the variant TCPLCKTELNIGSKDPPNFNTCTECKNQVCNLCGFNPTQHLTEIQEWLCLNCQTQRA [P39Q], the abundance fitness came to 0.099 ± 0.13.

For the variant TCPLCKTELNIGSKDPPNFNTCTECKNQVCNLCLFNPTPHLTEIQEWLCLNCQTQRA [G34L], the abundance fitness is 0.043 ± 0.087.

As for TCPLCKTELNIGSKDPPNFNTCTECKNQVCNLCAFNPTPHLTEIQEWLCLNCQTQRA [G34A], the abundance fitness is -0.083 ± 0.15.

For TCPLCKTELNIGSKDPPNFNTCTECKNQVCNLCFFNPTPHLTEIQEWLCLNCQTQRA [G34F], the abundance fitness is -0.035 ± 0.12.

With TCPLCKTELNIGSKDPPNFNTCTECKNQVCNLCVFNPTPHLTEIQEWLCLNCQTQRA [G34V], the abundance fitness is -0.037 ± 0.094.

Regarding TCPLCKTELNIGSKDPPNFNTCTECKNQVCNLCGTNPTPHLTEIQEWLCLNCQTQRA [F35T], the abundance fitness came out at 0.298 ± 0.14.

TCPLCKTELNIGSKDPPNFNTCTECKNQVCNLCGPNPTPHLTEIQEWLCLNCQTQRA [F35P]: the abundance fitness turned out to be 0.285 ± 0.14.

For TCPLCKTELNIGSKDPPNFNTCTECKNQVCNLCGVNPTPHLTEIQEWLCLNCQTQRA [F35V], the abundance fitness is 0.108 ± 0.092.

With TCPLCKTELNIGSKDPPNFNTCTECKNQVCNLCGMNPTPHLTEIQEWLCLNCQTQRA [F35M], the abundance fitness was 0.291 ± 0.12.

For TCPLCKTELNIGSKDPPNSNTCTECKNQVCNLCGFNPTPHLTEIQEWLCLNCQTQRA [F19S], the abundance fitness is -0.277 ± 0.12.

With TCPLCKTELNIGSKDPPNPNTCTECKNQVCNLCGFNPTPHLTEIQEWLCLNCQTQRA [F19P], the abundance fitness is -0.385 ± 0.15.

TCPLNKTELNIGSKDPPNFNTCTECKNQVCNLCGFNPTPHLTEIQEWLCLNCQTQRA [C5N]: the abundance fitness was -0.693 ± 0.084.

In the case of TCPLCKTRLNIGSKDPPNFNTCTECKNQVCNLCGFNPTPHLTEIQEWLCLNCQTQRA [E8R], the abundance fitness is -0.206 ± 0.071.

On to TCPLCKTDLNIGSKDPPNFNTCTECKNQVCNLCGFNPTPHLTEIQEWLCLNCQTQRA [E8D], for which the abundance fitness is -0.14 ± 0.12.

With TCPLCKTELNIGSKDPPNFNTCTECFNQVCNLCGFNPTPHLTEIQEWLCLNCQTQRA [K26F], the abundance fitness was -0.025 ± 0.12.

TCPLCKTELNIGSKDPPNFNTCTECKNLVCNLCGFNPTPHLTEIQEWLCLNCQTQRA [Q28L]: the abundance fitness was -0.078 ± 0.091.

Take TCPLCKTELNIGSKDPPNFNTCTECKNFVCNLCGFNPTPHLTEIQEWLCLNCQTQRA [Q28F]: the abundance fitness is -0.185 ± 0.12.

Consider TCPLCKTELNIGSKDPPNFNTCTECKNQVCNLCGFNPTPHLTEIQTWLCLNCQTQRA [E46T], for which the abundance fitness is -0.083 ± 0.19.

Consider TCPLCKTELNIGSKDPPNFNTCTECKNQVCNLCGFNPTPHLTEIQQWLCLNCQTQRA [E46Q], for which the abundance fitness came to 0.007 ± 0.17.

TCPLCKTELNIGSKDPPNFNTCTPCKNQVCNLCGFNPTPHLTEIQEWLCLNCQTQRA [E24P]: the abundance fitness was -0.517 ± 0.1.

On to TCPLCKTELNIGSKDPPNFNTCTSCKNQVCNLCGFNPTPHLTEIQEWLCLNCQTQRA [E24S], for which the abundance fitness is -0.13 ± 0.084.

Consider TCPLCKTELNIGSKDPPNFNTCTECKNQVCNLCGFNPTPHLTEIQEALCLNCQTQRA [W47A], for which the abundance fitness is -0.102 ± 0.14.

As to TCPLCKTELNIGSKDPPNFNTCTECKNQVCNLCGFNPTPHLTEIQEYLCLNCQTQRA [W47Y], the abundance fitness was -0.493 ± 0.25.

TCPLCKTENNIGSKDPPNFNTCTECKNQVCNLCGFNPTPHLTEIQEWLCLNCQTQRA [L9N]: the abundance fitness was -0.174 ± 0.16.

For the variant TCPLCKTELNIGSKDPPNFNTCTECKNQVCNLCGFNPTPHLTEIQEWLCHNCQTQRA [L50H], the abundance fitness turned out to be 0.145 ± 0.16.

Turning to TCPLCKTELNIGSKDPPNFNTCTECKNQVCNLCGFNPTPHLTEIQEWLCKNCQTQRA [L50K], the abundance fitness was determined as 0.078 ± 0.19.

For TCPLCKTELNIGSKDPPNFNTCTECKNQVCNLCGFNPTPHLTEIQEWLCCNCQTQRA [L50C], the abundance fitness was -0.04 ± 0.13.

For the variant RCPLCKTELNIGSKDPPNFNTCTECKNQVCNLCGFNPTPHLTEIQEWLCLNCQTQRA [T1R], the abundance fitness is -0.21 ± 0.25.

For TCPLCKTELNIGSKDPPNFNTCTECKNQVCNLCGFAPTPHLTEIQEWLCLNCQTQRA [N36A], the abundance fitness is -0.097 ± 0.097.

Regarding TCPLCKTELNIGSKDPPNFNTCTECKNQVCNLCGFEPTPHLTEIQEWLCLNCQTQRA [N36E], the abundance fitness worked out at 0.099 ± 0.12.

In the case of TCPLCKTELNIGSKDPPNFNTCTECKNQVCNLCGFGPTPHLTEIQEWLCLNCQTQRA [N36G], the abundance fitness was 0.038 ± 0.087.

Take TCPLCKTELNIGSKDMPNFNTCTECKNQVCNLCGFNPTPHLTEIQEWLCLNCQTQRA [P16M]: the abundance fitness was -0.09 ± 0.12.

For the variant TCPLCKTELNIGSKDPPSFNTCTECKNQVCNLCGFNPTPHLTEIQEWLCLNCQTQRA [N18S], the abundance fitness is -0.128 ± 0.1.

As to TCPLCKTELNIGSKDPPQFNTCTECKNQVCNLCGFNPTPHLTEIQEWLCLNCQTQRA [N18Q], the abundance fitness is -0.07 ± 0.12.

Regarding TCPLCKTELNIGSKDPPAFNTCTECKNQVCNLCGFNPTPHLTEIQEWLCLNCQTQRA [N18A], the abundance fitness is -0.199 ± 0.11.

With TCPLCKTELNIGSKDPPVFNTCTECKNQVCNLCGFNPTPHLTEIQEWLCLNCQTQRA [N18V], the abundance fitness is -0.348 ± 0.096.

TCPLCKTELNIGSKDPWNFNTCTECKNQVCNLCGFNPTPHLTEIQEWLCLNCQTQRA [P17W]: the abundance fitness was -0.199 ± 0.18.

Turning to TCPLCKTELNIGKKDPPNFNTCTECKNQVCNLCGFNPTPHLTEIQEWLCLNCQTQRA [S13K], the abundance fitness was 0.209 ± 0.14.

In the case of TCPLCKTELNIGDKDPPNFNTCTECKNQVCNLCGFNPTPHLTEIQEWLCLNCQTQRA [S13D], the abundance fitness is -0.463 ± 0.16.
